Data from patent publication US20210221891A1 (NANJING LEGEND BIOTECH, published 2021).

The binders below were run against human PD-L1 expressed on CHO-K1 cells (human, UniProt Q9NZQ7 19-290) (assay: cell-based or functional assay).
Chain of human PD-L1 expressed on CHO-K1 cells (Q9NZQ7 19-290): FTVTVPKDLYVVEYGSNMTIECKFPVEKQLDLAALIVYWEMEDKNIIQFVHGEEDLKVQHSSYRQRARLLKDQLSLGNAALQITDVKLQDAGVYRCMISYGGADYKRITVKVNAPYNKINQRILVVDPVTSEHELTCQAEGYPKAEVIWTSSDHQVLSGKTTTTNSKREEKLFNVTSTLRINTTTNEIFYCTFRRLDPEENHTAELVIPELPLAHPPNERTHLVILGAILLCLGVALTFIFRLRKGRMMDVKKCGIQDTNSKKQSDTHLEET

| Binder | EC50 of PD-L1- based blockade assay for sdAbs [nM] |
| --- | --- |
| AS06628 sdAb (VHH) VHH: QVQLVESGGGLVQAGGSLRLSCAASGRTFITYAIGWFRQAPGKEREFVTAINWSGSMTSYADSVKGRFTISRDNNKNMVYLQMNSLKPEDTAVYYCAAHRGAIAPMTQSVYDYWGQGTQVTVSS | 24.2 |
| AS06703 sdAb (VHH) VHH: EVQLVESGGGLVRAGGSLRLSCAASGRTFITYAIGWFRQAPGKEREFVTAINWSGSMTSYADSVKGRFTISRDNNKNTVYLQMNSLKPEDTALYYCAAHLGAIAPMSQSVYDYWGQGTQVTVSS | 15 |
| AS06750 sdAb (VHH) VHH: AVQLVESGGGLVQAGDSLRLSCTASGRTFLTYAVGWFRQAPGTEREFVAGIRWSGGYTDYADSVKGRFTISRDNAKNTVYLQMNSLKPEDTAVYYCAAHRTIATIPEKYEYEYWGQGTQVTVSS | 33.6 |
| AS06682 sdAb (VHH) VHH: AVQLVESGGGLVQAGDSLRLSCTASGRTFLSYAVGWFRQAPGTEREFVAGIRWSGEHTDYAASVKGRFTISRDNAKNTVYLQMNSLKPEDTAVYYCAAHTTIATIPKKYEYEYWGQGTQVTVSS | 42 |
| AS06617 sdAb (VHH) VHH: DVQLVESGGGLVQAGDSLRLSCAASGRTFISYAVGWFRQAPGSEREFVAGIRWNGIHTDYADSVKGRFTISRDNAKNTVTLEMTSLKPEDTAVYYCAAHRTIATIPEKYEYEYWGQGTQVTVSS | 63.8 |
| AS06775 sdAb (VHH) VHH: QVQLVESGGGLVQAGDSLRLSCAASGRTFLTLAVGWFRQAPGTEREFVAGIRWSGSGTDYADSVKGRFTISRDNAKNTVYLQMNSLKPEDTAVYYCAAHTTIATIPEKYEYEYWGRGTQVTVSS | 75.5 |
| AS06686 sdAb (VHH) VHH: AVQLVESGGGLVQAGDSLRLACAASGRTFLTYALGWFRQAPGKEREFVAGVSWSGSSTKYADSVKGRFTISRDNAKNTVYMQMNSLKPEDTAVYYCAAQISAIVPISAHEYQYWGQGTQVTVSS | 352 |
| AS06778 sdAb (VHH) VHH: QVQLVESGGGLVQAGGSLKLSCAASGRTFITYAMGWFRQAPGKERELVAAISWSGSSTYSADSVKGRFTISRDNAKNTVYLQMNSLKPEDTAVYYCAAEVSARTGEHLPKLMGDYWGQGTQVTVSS | 20.1 |
| AS11947 sdAb (VHH) VHH: DVQLVESGGGLVQAGDSLRLTCSASGRTFISYAVGWFRQAPGTEREFVAGIRWNGISTDYTDSVKGRFTISRDNAKNTVYLQMNSLKPEDTAIYYCAAHRTIATIPNKYEYDHWGQGTQVTVSS | 77.2 |

Now from value to binder:

| EC50 of PD-L1- based blockade assay for sdAbs [nM] | Binder |
| --- | --- |
| 17.2 | AS06730 sdAb (VHH) VHH: QVQLVESGGGLVQAGGSLRLSCAASGRTFITYAIGWFRQAPGKEREFVSAINWSGSMTSYADSVKGRFTISRDNAKNTVYLQMNGLKPEDTAVYYCAAHRGAIAPIAQSVYTNWGQGTQVTVSS |
| 36.5 | AS06791 sdAb (VHH) VHH: QVQLVESGGGLVQAGGSLRLSCAASGRTFITYAIGWFRQAPGKEREFVTAINWSGSMTSYADSVKGRFTISRDNAKNTVYLQINGLKSEDTAVYYCAAHRGAIAPMTQSVYDYWGQGTQVTVSS |
| 96.2 | AS12003 sdAb (VHH) VHH: EVQLVESGGGLVQAGDSLRLSCAASGRTFLSYAVGWFRQAPGTEREFVAGIRWSGGSTDYADSVKGRFTISRDNAKNTVYLQMNSLKPEDTAVYYCAAHRTIATVPNKYEYDTWGQGTQVTVSS |
| 44.5 | AS06618 sdAb (VHH) VHH: EVQLVESGGRLVRAGDSLRLSCAASGRTFLSYAVGWFRQAPGTEREFVAGIRWSGGYTDYAEAVKGRFTISRDNAKNTVYLQMNSLKPEDTAVYYCAAHRTIATIPEKYEYEYWGQGTQVTVSS |
| 25.2 | AS11948 sdAb (VHH) VHH: EVQLVESGGGLVQAGDSLRLSCVASGRTFVTYGMGWFRQAPGKEREFVAAINWSGSMTSYGDSVKGRFAISRDNAKNTVYLQMNSLKPEDTAVYYCAAALGAVVYTTREPYTYWGRGTQVTVSS |
